Experimental data from patent US20250092406.
Like-named read-outs stand apart in the source and are kept apart here.

Legend:
[1] = target: SARS-CoV-2 spike glycoprotein subunit 1 (S1) (SARS-CoV-2) (UniProt P0DTC2); assay: BLI
TNF-alpha = TNF-alpha (UniProt P01375); assay: BLI; details: SEQ 37 part DNA primer, selected region TNA 3'-2', 24 C, 2 mM CaCl2
[2] = SEQ 37 part DNA primer, selected region TNA 3'-2', all T = C5-benzyl carboxamide U (UPhe)
[3] = all T = C5-benzyl carboxamide U (UPhe)
[4] = SEQ 37 part DNA primer, selected region TNA 3'-2', all T = C5-indole carboxamide U (UTrp)
[5] = all T = C5-indole carboxamide U (UTrp)

Chain of TNF-alpha (P01375 77-233): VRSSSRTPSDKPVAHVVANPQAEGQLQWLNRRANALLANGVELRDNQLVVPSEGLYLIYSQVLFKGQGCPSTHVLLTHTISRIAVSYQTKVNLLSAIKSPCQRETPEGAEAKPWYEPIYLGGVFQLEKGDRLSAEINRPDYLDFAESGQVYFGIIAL

GTCCCCTTGGGGATACCACCCGTGCACGATCTAGCCAGTGCTCGCTTGAAATGGGCGCAG [S1 Standard-2]
Kd ([1]; SEQ 37 part DNA primer, selected region TNA 3'-2', natural bases): 34 nM

GTCCCCTTGGGGATACCACCGAGAGTCATAGTAGTTCACGGGTCTGCAGCTTACGCATGT [S1 Phe entry 6]
Kd [1, 2]: 11.3 nM

GTCCCCTTGGGGATACCACCGAATGCGCTTGAGCGCGCCCGATGATATAGCGAACCAAGC [TNF Phe entry 7]
Kd (TNF-alpha; [3]): 54 nM

GTCCCCTTGGGGATACCACCTAAGGAAAGGGGAGCGGGTAGGAGGTTCGTCGGGTGCGAC [S1 Trp entry 19]
Kd [1, 4]: 4.2 nM

GTCCCCTTGGGGATACCACCTGACACCTGGCACGAATGCGCAGACGACGTTGTTTTGCGT [TNF Phe entry 4]
Kd (TNF-alpha; [3]): 19 nM

GTCCCCTTGGGGATACCACCCTTAGGTCGGCCTTTGACCATTCGTGCAAAACTTAGCGAA [TNF Phe entry 6]
Kd (TNF-alpha; [3]): 41 nM

GTCCCCTTGGGGATACCACCAGAACTTCGTCAGCGTCTTACCGAGTCCAAGGACTGGCTA [S1 Phe entry 12]
Kd [1, 2]: 28.8 nM

GTCCCCTTGGGGATACCACCTTAATTTTGAGATCTTTGTCGAGTTGCTCGGTGAAAAGTC [TNF Phe entry 8]
Kd (TNF-alpha; [3]): 70 nM

GTCCCCTTGGGGATACCACCCGCGGCGTTGCGTAGCGCCAATCCTGCACAGAGGCGGGCG [TNF standard entry 3]
Kd (TNF-alpha; natural bases, R2 0.88): 141 nM

GTCCCCTTGGGGATACCACCGCGGGGGGTGTTGTGTAACTGTTTTTTGCCGGAAAGACGC [TNF standard entry 1]
Kd (TNF-alpha; natural bases, R2 0.88): 42 nM

GTCCCCTTGGGGATACCACCACTTTTGCTTGAGATTCGGCGCATTTCGTGCAGTGATGTA [TNF Phe entry 5]
Kd (TNF-alpha; [3]): 27 nM

GTCCCCTTGGGGATACCACCAGGCTTATGAAATCTTATGTGAACCGGGCATACGGGCGAT [S1 Phe entry 4]
Kd [1, 2]: 5.2 nM

GTCCCCTTGGGGATACCACCTTAGTATTATTATGGGTGCGTGAGTTTCCAAGAAGCGCGT [TNA 949]
Kd ([1]; SEQ 37 part DNA primer, selected region TNA 3'-2', threomer base modification (side chain not stated, probably UTrp)): 0.7 nM

GTCCCCTTGGGGATACCACCTATTGGAACTCCCGAGCAGGCTGTCCCATGGAAGACTACA [S1 Phe entry 3]
Kd [1, 2]: 2.6 nM

GTCCCCTTGGGGATACCACCTGGCGAGGGGTAGTGAGCTGACGGATAGGGCTAGTGGAAC [S1 standard entry 1]
Kd ([1]; SEQ 37 part DNA primer, selected region alpha-L-threofuranosyl (TNA) 3'-2', natural bases): 17.6 nM

GTCCCCTTGGGGATACCACCGCGGCCAGATCCCCGATATGTTAACGTCCTTTTATGCGGG [TNA 913]
Kd ([1]; SEQ 37 part DNA primer, selected region TNA 3'-2', all T = C5-indole carboxamide U (UTrp; from doped Trp-1 library)): 0.85 nM

GTCCCCTTGGGGATACCACCATTGTGCGAAGTATACATAGCAGATGCGTGACATAACAAG [S1 Trp entry 20]
Kd [1, 4]: 5.1 nM

GTCCCCTTGGGGATACCACCATCGAGTTGTGACGTTAACGATAATAGCCCGCTCCGATTC [S1 Phe entry 13]
Kd [1, 2]: 31 nM

GTCCCCTTGGGGATACCACCACGATGGACTTGGGTAGCTAGTCAGGTTAGGCTGTTTGGA [S1 Phe entry 11]
Kd [1, 2]: 22.1 nM

GTCCCCTTGGGGATACCACCTCACGTCTGTTGTACACTTGTGCAATGCAAGGACGGAAAA [TNF Trp entry 11]
Kd (TNF-alpha; [5]): 12 nM

GTCCCCTTGGGGATACCACCGGCACTATCGATTATCGTGCGCATTGGTTGTGTCCAGGCT [TNF Trp entry 10]
Kd (TNF-alpha; [5]): 7.3 nM

GTCCCCTTGGGGATACCACCTTTCTATGCATCTCGGGGATGCGGGATATAAAAGAGAGAC [S1 Trp entry 23]
Kd [1, 4]: 29.1 nM

GTCCCCTTGGGGATACCACCACGAGTAGGCCGCATTATGATGATTTAAACTGTTTCATGC [TNF Trp-3]
Kd (TNF-alpha; all T = C5-indole carboxamide U (UTrp), three replicates 16, 17, 27 nM): 20 nM

GTCCCCTTGGGGATACCACCTACATTACGCGTTAGCGTTAATGGGTATGTCCGGACAGTG [S1 Phe entry 14]
Kd [1, 2]: 36 nM

GTCCCCTTGGGGATACCACCAAACTGTTGGGACTTGTAATGTCGTCATCAGCTAAGAGTC [S1 Trp entry 22]
Kd [1, 4]: 21.1 nM

GTCCCCTTGGGGATACCACCGGTGTAATAAGGAGAGTACGTCGTTTGGTGGGACCGGGTA [S1 Phe entry 15]
Kd [1, 2]: 39 nM

GTCCCCTTGGGGATACCACCAGAGCAAGTCATGATCGCGAGTTTAGCTTTTTCATTTCCC [TNF Phe entry 9]
Kd (TNF-alpha; [3]): 86 nM

GTCCCCTTGGGGATACCACCTTGGCGAGATCCCCTATACGTGAGCTTCCTTTTATCCTTT [S1 Trp-1]
Kd [1]: 3.1 nM

GTCCCCTTGGGGATACCACCGACGCTATGACTGGTATGGTGTGTGAGCTTCGAGGTCTGA [TNF Standard-2]
Kd (TNF-alpha; natural bases, three replicates 109, 76, 62 nM, approximate, poor curve fit): 82 nM

GTCCCCTTGGGGATACCACCTGTACGCCATATAGGCAGTCATCGAGCAACGAAGTAATGG [S1 Phe entry 9]
Kd [1, 2]: 16.7 nM

GTCCCCTTGGGGATACCACCCGTACAACTCCGGTTTCGGGCGGCCCGTTCTTCAGTTTGA [S1 Trp entry 18]
Kd [1, 4]: 2.7 nM
